Results as given in a protein production outcome set (Wang et al. 2014).

assay: label from the status in PepcDB records

Sequence | protein production
MSLKTTTSSTPSDRITWVRISSCYLPLATPISDAKVLTGRQKPMTEIAILFAEIETAGGHQGLGFSYSKRAGGPGQFAHAREIAPALIGEDPSDIAKLWDKLCWAGASAGRSGLSTQAIGAFDVALWDLKAKRAGLSLAKLLGSYRDSVRCYNTSGGFLHTPIDQLMVNASASIERGIGGIKLKVGQPDGALDIARVTAVRKHLGDAVPLMVDANQQWDRPTAQRMCRIFEPFNLVWIEEPLDAYDHEGHAALALQFDTPIATGEMLTSAAEHGDLIRHRAADYLMPDAPRVGGITPFLKIASLAEHAGLMLAPHFAMELHVHLAAAYPREPWVEHFEWLEPLFNERIEIRDGRMLVPTRPGLGLTLSGQVKAWTREEAQVGTRPEGHHHHHH | not failed
MSLLKIFYVILGFISLGLGLIGIILPILPTTPFLLLTAFCFVKGSDKFDKWFKGTKIYKNHLESFEKNRAMTLKTKLTILLTADIMLLFPLILSKSIHLKIFIVILMMFKFYYFIFRIKTVKAGDVVEQNR | failed
MSLLNIKFTDNAVDYLKRREILDKILILITDDGGGKYSIQGGSCSMGAHFSIIWLDKVDPDYPVKIANEQNVKIYTSDFDKTMLGPNMVMDYNAGSLSLSSDEGLLDGSVDIGNGAALLKANKNVQMGINRQCEGHHHHHH | not failed
MSLLQQADRLHRQLLRTGPAQAPCWEPPVDMIETESAVLIYVALPGVAAGDVAVRFDPDGISISGVRPLPALRNARIHGLEIPYGRFQRRIRLPLHALEPEAPTLADGCLTLTLKKLREAPLEHHHHHH | failed
MSLNDNNTILGFDVNLICDFFLNTERQGPGSPEVTLKALSFIDNLTNKSLIADLGCGTGGQTMILAQHVPGKITGIDFFPGFIERFNKNAEKLNLQNRVKGIVGSMDDLSFEKDSLDLIWSEGAIYNIGFERGLKEWRNYLKPGGYLAVSESVWFTDQRPAEIHDFWMSAYTEIDTVPNKVAQIQKAGYIPVATFILPENCWIEHYFAPQAKAEEIFRRKHAGSRIVEELITSNHHEAELYSKYKAYYGYAFFICKKGFSLREGHHHHHH | not failed
MSLPHLSSGEVASVLPLGKQLTQTPSAALFKEHRLEVMRMVLPAGKQVGSHSVAGPSTIQCLEGEVEIGVDGAQRRLHQGDLLYLGAGAAHDVNAITNTSLLVTVVLVDRGGS | not failed
MSLPQSKVLTSFGTANRTPRAAETHPLTWRLRDDGQPVWLEEYQTKQGYDAVRKALGQMSPDEIVSTVKDAGLKGRGGAGFPTGVKWGLMPKDESMNIRYLLCNADEMEPNTWKDRLLMEQLPHLLIEGMIISAKALKAYRGYIFLRGEYVDAAINLRRAVEEAKAAGLLGKNILGSGFDFELFVHTGAGRYICGEETALINSLEGRRANPRAKPPFPAVSGVWGKPTCVNNVETLCNVPAIIGNGVAWYHTLALPGSEDHGTKLMGFSGKVNNPGVWELPFGITARELFEGYAGGMRSGYRLKAWQPGGAGTGFLLPEHLDAQMYTAGIGKVGTRMGTGLAMAVDDSISMVSLLRNMEEFFARESCGWCTPCRDGLPWSVKLLRSLERGEGQEGDLATLEQLCNFLGPGKTFCAHAPGAVEPLASAIKYFRSEFEAGIKGSGDNRKSIKGIQPNLLGERWLEHHHHHH | not failed
MSLQFNPIGLFLVALILLGVLGNNNSITISATLLLLMQQTALNKYIPMLEKYGLTIGIIILTIGVLSPIVSGKINLPNLSEILSWKMALAISIGIFVAWLGGRGINLMATQPLIITGLLIGTIIGIAFFGGIPVGPLIAAGIMSLLVGKL | failed
MSLQLINLNSDLKRLRDEGYFIQVKNGFLIMRDVPYVNSNRHVCRGTIISSLSLAGDRTRIPDTHVVHFDGDMPCNAEGEALNAVVLQSSIFDLGRGITAKHMFSSKPKSGYTDYYHKMTTYASILSGHAEVLNSGISPKVFSTPEDEEDSVFNYTETASGRVGIGALSDLLTEE | failed
MSLQLRLALNQIDSTVGDIAGNAEAILRWTRHSAEQGAHLVAFPEMALTGYPVEDLALRSSFVEASRTALRELAARLAEEGFGELPVLVGYLDRSESAQPKYGQPAGAPRNAAAVLHRGRVALTFAKHHLPNYGVFDEFRYFVPGDTMPIVRLHGVDIALAICEDLWQDGGRVPAARSAGAGLLLSVNASPYERDKDDTRLELVRKRAQEAGCTTAYLAMIGGQDELVFDGDSIVVDRDGEVVARAPQFSEGCVVLDLDLPAAEAEPPTGVVDDGLRIDRLVISEEPLPAYEAELAGGYADRLDADEEVYSALVVGLRAYVAKNGFRSVLIGLSGGIDSALVAAIACDALGAQNVYGVSMPSKYSSDHSKGDAAELARRTGLNFRTVSIEPMFDAYMASLGLTGLAEENLQSRLRGTTLMAISNQEGHIVLAPGNKSELAVGYSTLYGDSVGAYGPIKDVYKTSIFRLAEWRNRAAAERGQTPPIPEASITKPPSAELRPGQVDTDSLPDYPVLDAILELYVDRDTGADAIVAAGYDRELVVKTLRMVDTAEYKRRQYPPGTKISAKGFGKDRRLPITNRWREGHHHHHH | not failed
MSLQTCVLHRLSLPLKFPMRTAHGHIREKQAILVQLVDADGIEGWSECVALAEPTYTEECTDTAWVMLVHHLVPRFARWLRAASQDQDVDPRTVCEALRDVRGNRMSVAAIEMAVWDWYAARTGQPLVGLLGGGRDRVEVSATLGMSESLDVLIQSVDAAVEQGFRRVKLKIAPGRDRAAIKAVRLRYPDLAIAADANGSYRPEDAPVLRQLDAYDLQFIEQPLPEDDWFDLAKLQASLRTPVCLDESVRSVRELKLTARLGAARVLNVKPGRLGGFGATLRALDVAGEAGMAAWVGGMYETGVGRVHGLIAAALPLMRYATDLGPSDRYFEQDVLKEPIAFVEPGVIQVPQCAGVADWVDRDAVRRFSTATWSVDLRTLEGHHHHHH | not failed
MSLRAVRLHAKWDPRPEFKLGPKDIEGKLTWLGSKVWRYPEVRVEEVPEPRIEKPTEIIIKVKACGICGSDVHMAQTDEEGYILYPGLTGFPVTLGHEFSGVVVEAGPEAINRRTNKRFEIGEPVCAEEMLWCGHCRPCAEGFPNHCENLNELGFNVDGAFAEYVKVDAKYAWSLRELEGVYEGDRLFLAGSLVEPTSVAYNAVIVRGGGIRPGDNVVILGGGPIGLAAVAILKHAGASKVILSEPSEVRRNLAKELGADHVIDPTKENFVEAVLDYTNGLGAKLFLEATGVPQLVWPQIEEVIWRARGINATVAIVARADAKIPLTGEVFQVRRAQIVGSQGHSGHGTFPRVISLMASGMDMTKIISKTVSMEEIPEYIKRLQTDKSLVKVTMLNEGHHHHHH | not failed
MSLRVIDTHCDALYKLQAGKGKYTFQDAEELDVNFERLIEAKMLLQGFAIFLDEDIPVEHKWKKAVEQVNIFKQHVLHKGGIIHHVKKWCDLENLPEDKIGAMLTLEGIEPIGRDLDKLTQLLDGGVLSVGLTWNNANLAADGIMEERGAGLTRFGKDIIHLLNERKVFTDVSHLSVKAFWETLEQAEFVIASHSNAKAICSHPRNLDDEQIKAMIEHDAMIHVVFYPLFTTNNGVADTEDVIRHIDHICELGGLKNIGFGSDFDGIPDHVKGLEHVGKYQSFLETLEKHYTKEEIEGFASRNFLNHLPKEGHHHHHH | not failed
MSLSAKSSLKEVAELAGVGYATASRALSGKGYVSPQTREKVQAAAKELNYVPNQLAKALREHRSALVGVIVPDLSNEYYSESLQTIQQDLKAAGYQMLVAEANSVQAQDVVMESLISIQAAGIIHVPVVGSIAPEGIPMVQLTRGELGPGFPRVLCDDEAGFFQLTESVLGGSGMNIAALVGEESLSTTQERMRGISHAASIYGAEVTFHFGHYSVESGEEMAQVVFNNGLPDALIVASPRLMAGVMRAFTRLNVRVPHDVVIGGYDDPEWYSFVGAGITTFVPPHEEMGKEAVRLLVDLIENPELPTGDVVLQGQVILRGSSTHEGHHHHHH | not failed
